From patent US20250042970A1 (AURINIA PHARMACEUTICALS, published 2025)
Read-outs that look alike come from different tables or passages of the source.

T1: FLAG-tagged recombinant human APRIL (human, UniProt O75888 105-250)
T1 construct: KINEXA ligand; also called huAPRIL
T1 sequence: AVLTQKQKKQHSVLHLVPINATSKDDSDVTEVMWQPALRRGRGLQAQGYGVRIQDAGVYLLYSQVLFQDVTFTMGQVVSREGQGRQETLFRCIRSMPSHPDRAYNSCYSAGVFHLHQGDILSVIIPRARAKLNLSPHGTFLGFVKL

T2: FLAG-tagged cynomolgous APRIL (cynomolgus monkey, UniProt A0ACM8R0G4 110-250 (rhesus entry))
T2 construct: FLAG-tagged, expressed with TPA signal peptide; also called cyAPRIL
T2 sequence: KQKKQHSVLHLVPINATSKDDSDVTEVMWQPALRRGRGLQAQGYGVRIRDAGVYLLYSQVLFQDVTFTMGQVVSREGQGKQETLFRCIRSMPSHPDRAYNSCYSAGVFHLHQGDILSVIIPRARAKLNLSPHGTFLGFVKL


Legend:
FLAG-tagged human BAFF [1] = molecular target: T3, FLAG-tagged human BAFF (human, UniProt Q9Y275 134-285, limits assumed); test: KinExA
T3 construct: used in BIACORE (Ex. 9) and KINEXA (Ex. 11); also called huBAFF
Description: (§1) Equilibrium measurements were performed using FLAG-tagged, recombinant huBAFF and huAPRIL ligands. Fixed ligand concentrations of human BAFF or human APRIL were incubated with serial dilutions of the variant BCMA ECD-Ig fusion polypeptides, and free ligand was detected in a KINEXA 3200 Instrument. variant BCMA ECD-Ig fusion polypeptides were first diluted in equilibration buffer (1×PBS, pH 7.4, 1 mg/ml BSA) to a range of concentrations from 10 nM to 100 fM. The linear portion of the dilution series was typically 2-fold. Ligands were diluted in equilibration buffer to fixed concentrations ranging from 5 to 20 pM and then incubated with the variant BCMA-Ig dilutions in total reaction volumes ranging from 4.5 to 15 ml. Samples were incubated at room temperature for 48-72 hours to reach equilibrium. For each data point, a fresh column of 850 μl of bead slurry coated with Variant BAv-238475-Ig was introduced into the KINEXA flow cell. Equilibrated samples ranging from 1 to 5 ml reaction volume were injected at a flow rate of 0.25 ml/min. […] The DyLight 649 fluorescent signal was detected using the red filter set (620/30 nanometer excitation filter, 670/40 nanometer emission filter, 645 nanometer dichroic filter) on the KinExA instrument and converted to a voltage signal that was directly proportional to the concentration of free ligand in the equilibrated sample.
(§2) The standard kinetic exclusion assays and data analyses described above were performed on protein preparations of various variant BCMA ECD-Ig fusion polypeptides, as well as Z-TACI-Ig and [S40G]huBCMA ECD-Ig fusion polypeptides. FIG. 8A, FIG. 8B, and Table 4 summarize the binding data for representative variant BCMA ECD-Ig polypeptides and controls in molar concentrations of huBAFF or huAPRIL determined by KINEXA binding assays.

[2] = molecular target: T1, FLAG-tagged recombinant human APRIL; test: KinExA
Description: as §1, §2

FLAG-tagged human BAFF [3] = molecular target: T3, FLAG-tagged human BAFF; test: KinExA; remark: listed apart in the source
Description: as §1
(§3) Table 5 provides the selectivities of exemplary variant BCMA polypeptides with respect to BAFF and APRIL.

[4] = molecular target: T1, FLAG-tagged recombinant human APRIL; test: KinExA; remark: listed apart in the source
Description: as §1, §3

FLAG-tagged human BAFF [5] = molecular target: T3, FLAG-tagged human BAFF; test: KinExA; remark: listed apart in the source
Description: as §1
(§4) The various fusion proteins described above were expressed and purified as described previously (Examples 2 and 3 for the CET1019AS based plasmids and Examples 7 and 8 for the pcDNA based plasmids). […] The BAv9-1-Ig Fc proteins typically exist in solution as a dimeric fusion protein. The purified fusion proteins were assayed for binding activity using BIACORE (Example 9) and KINEXA (Example 11) assays.

[6] = molecular target: T1, FLAG-tagged recombinant human APRIL; test: KinExA; remark: listed apart in the source
Description: as §1, §4

FLAG-tagged human BAFF [7] = molecular target: T3, FLAG-tagged human BAFF; test: BIACORE SPR
Description: (§5) For human BAFF, cynomolgus monkey APRIL, and mouse APRIL measurements, mouse monoclonal antibody (IgG1) anti-FLAG M2 (Sigma Aldrich, Cat. No. F1804) was immobilized on CM3 sensor chips (GE Healthcare, Cat. No. BR-1005-41) according to the manufacturer's protocol. Antibody was diluted to 30 μg/ml in immobilization buffer (10 mM pH 5±0.20; GE Healthcare; GE Healthcare, Catalog No. BR-1003-51). […] Unreacted sites were quenched with 35 μl of 1M ethanolamine-HCl, pH 8.5 (GE Healthcare, GE Healthcare, Cat. No. BR-1000-50). This procedure typically yielded 3,000-4,000 response units (RU) of coupled antibody.
(§6) The fusion polypeptides were diluted in HBS-EP buffer and flowed over ligand-coated sensor chips. The variant BCMA-Ig and surrogate control fusion proteins were injected at three concentrations (1.5 nM, 15 nM, and 150 nM at 30 μl/min for 2 minutes per association phase) in a single binding cycle, followed by a 20 minute incubation with HBS-EP buffer containing no protein at the same flow rate. A similar protocol was followed for Z-TACI-Ig, except that the injections were at 4.5 nM, 45 nM, and 450 nM.
as §4

[8] = molecular target: T2, FLAG-tagged cynomolgous APRIL; test: BIACORE SPR
Description: as §5, §6, §4

FLAG-tagged human BAFF [9] = molecular target: T3, FLAG-tagged human BAFF; test: BIACORE SPR; NB = No binding
Description: as §5, §6
(§7) Using available information from the structures and published literature, several residues in BAv8-10 were targeted for substitution with conserved as well as non-conserved residues and their effect on BAFF and APRIL binding was assessed by BIACORE.

[10] = molecular target: T2, FLAG-tagged cynomolgous APRIL; test: BIACORE SPR; NB = No binding
Description: as §5, §6, §7

Kd (FLAG-tagged human BAFF [1]) [pM]	fold improvement over control (FLAG-tagged human BAFF [1]) [fold]	Kd [2] [nM]	fold improvement over control [2] [fold]	Selectivity for huBAFF (KD APRIL/KD BAFF) (FLAG-tagged human BAFF [3]) [ratio]	Selectivity for huAPRIL (KD BAFF/KD APRIL) [4] [ratio]	Kd (FLAG-tagged human BAFF [5]) [pM]	Kd [6] [nM]	Kd (FLAG-tagged human BAFF [7]) [pM]	Kd [8] [nM]	binding result (FLAG-tagged human BAFF [9])	binding result [10]	Binder
0.0847	2660	0.132	0.0012	1560	0.001	0.085	0.132	8.03	0.773			AGQCSQNEYFDHLVRACIPCQARCSSNTPPLTCQRYCNAGVTNSVKGTNA (Fc fusion, also called BAv85 (2)-Ig; BAv85-pIg18; not shown: PIg18: human IgG2 Fc, Ser at Fc positions 4, 5, 11 (native Cys)) [BAv85-Ig]
										no binding (tested: 150 nM)	no binding (tested: 150 nM)	AGQCSQNEYFDHLIRACIPCQVTCSSNTPPLTCQRYCNAGVTNSVKGTNA (Fc fusion, not shown: PIg18: human IgG2 Fc, Ser at Fc positions 4, 5, 11 (native Cys)) [BAv76-Ig]
0.246	917	0.364	0.00044	1480	0.001	0.246	0.364	8.31	2.06			AGQCSQNEYFDPLVRACIPCQVRCSSNTPPLTCQRYCNAGVTNSVKGTNA (Fc fusion, also called BAv81 (2)-Ig; BAv81-pIg18; not shown: PIg18: human IgG2 Fc, Ser at Fc positions 4, 5, 11 (native Cys)) [BAv81-Ig]
